Columns and labels:
[1] = target: PD-L1-6His-tag (Programmed cell Death Ligand 1) of the Cisbio Human PD1/PD-L1 biochemical binding assay (human) (UniProt Q9NZQ7); experiment: AlphaScreen or HTRF
[2] = target: human PD-L1 expressed on CHO-K1 cells (CHO-K1 hPD-L1) (human) (UniProt Q9NZQ7); experiment: radioligand binding
Chain of human PD-L1 expressed on CHO-K1 cells (CHO-K1 hPD-L1) (human) (Q9NZQ7 19-290): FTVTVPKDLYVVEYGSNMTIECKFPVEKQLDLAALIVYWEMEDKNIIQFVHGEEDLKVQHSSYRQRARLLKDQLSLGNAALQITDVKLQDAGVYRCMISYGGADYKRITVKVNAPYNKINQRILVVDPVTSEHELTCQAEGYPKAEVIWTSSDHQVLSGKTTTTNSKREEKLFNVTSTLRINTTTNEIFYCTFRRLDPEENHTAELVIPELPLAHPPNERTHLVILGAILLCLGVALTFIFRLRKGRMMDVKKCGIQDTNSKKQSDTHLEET

Chain of PD-L1-6His-tag (Programmed cell Death Ligand 1) of the Cisbio Human PD1/PD-L1 biochemical binding assay (human) (Q9NZQ7 19-238): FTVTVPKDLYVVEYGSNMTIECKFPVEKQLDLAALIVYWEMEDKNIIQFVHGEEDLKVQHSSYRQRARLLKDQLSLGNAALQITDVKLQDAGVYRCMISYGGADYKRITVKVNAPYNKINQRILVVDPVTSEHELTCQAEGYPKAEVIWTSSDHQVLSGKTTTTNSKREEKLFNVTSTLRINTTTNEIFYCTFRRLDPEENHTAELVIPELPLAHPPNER

Row | Substance | IC50 [1] [nM] | cell internalization %AD/10^6 cells (90 min) (%AD/10^6 cells) [2] | membrane bound %AD/10^6 cells (90 min) (%AD/10^6 cells) [2]
1 | BMS78, 14-mer macrocyclic peptide | 133 | – | –
2 | NJMP1 (BMS78 C-terminally conjugated to Lys(DOTA)NH2) (peptide) | 242 | – | –
3 | [68Ga]Ga-NJMP1 (peptide) | – | 1.68 | 0.36
4 | [68Ga]Ga-WL12 (WL12 with DOTAGA on Orn13, loaded with 68Ga) (peptide) | – | 19.2 | 18.2
5 | natGa-NJMP1 (peptide) | 25900 | – | –
6 | natGa-WL12 (WL12 with DOTAGA on Orn13, loaded with natGa) (peptide) | 12.4 | – | –
